Experimental data as given in publication PMC5590460.

Target: recombinant MUC5AC C terminus protein (human)
Assay: SDS-PAGE under non-reducing and reducing conditions with western blot; purified recombinant protein from cell lysates and cell supernatants run reduced and non-reduced on 6% Bis-Tris acrylamide or 3%-8% Tris-Acetate gels, transferred to PVDF, probed with a His antibody

stoichiometry N: 2
Substance: recombinant MUC5AC C terminus protein (domain or fragment)
